Laboratory results as given in PMC12728182, “Hierarchical folding-upon-binding of an intrinsically disordered protein” (Nature Communications, 2025).

Key:
Details in all cases: both partners purified
[1] = molecular target: T1, Human Rac1 (residues 1-177), GMPPNP-loaded (human, UniProt P63000 1-177); assay: ITC; POSH_(315-380) (1000 uM) titrated into GMPPNP-loaded Rac1 (125 uM), 35 °C, 50 mM HEPES pH 6.9, 150 mM NaCl, 5 mM MgCl2, 2 mM TCEP; model 'One set of sites'; duplicates
[2] = molecular target: T1, Human Rac1 (residues 1-177), …; assay: NMR 15N CEST; 15N POSH_(315-380) (500 uM) with 20% molar ratio of Rac1 (100 uM), 950 MHz, four B1 fields (5.2, 10.3, 20.5, 68.6 Hz); global fit with a linear 4-site exchange model (ChemEx), total bound population fixed from Kd = 24 uM at 25 °C
[3] = molecular target: T1, Human Rac1 (residues 1-177), …; assay: ITC; Kd at 25 °C not measured directly (binding enthalpy close to 0); estimated through linear extrapolation of the Gibbs free energy measured by ITC at 5, 10, 15 and 35 °C; same buffer

Kd [1]: 21 to 46 µM
kAB (intermediate A to B, folding of the MRE1 helix on Rac1, 4-site model) [2]: 72 s⁻¹
kBC (intermediate B to final complex C, folding of MRE2 on Rac1, 4-site model) [2]: 89 s⁻¹
Kd [3]: 24 µM
B1: POSH_(315-380), shorter construct of human POSH comprising MRE1 and MRE2 (domain or fragment)
chain: GHMWSQASQNRHSMEISPPVLISSSNPTAAARISELSGLSCSAPSQVHISTTGLIVTPPPSSPVTTGPSF
